Source: the supplement of paper PMC11908140

B1: library; numbered along this chain (parent)
chain: MRKPRAAVGSGHRKQAASQEGRQKHAKNNSQAKPSACDGLARQPEEVVLQASVSSYHLFRDVAEVTAFRGSLLSWYDQEKRDLPWRRRAEDEMDLDRRAYAVWVSEVMLQQTQVATVINYYTGWMQKWPTLQDLASASLEEVNQLWAGLGYYSRGRRLQEGARKVVEELGGHMPRTAETLQQLLPGVGRYTAGAIASIAFGQATGVVDGNVARVLCRVRAIGADPSSTLVSQQLWGLAQQLVDPARPGDFNQAAMELGATVCTPQRPLCSQCPVESLCRARQRVEQEQLLASGSLSGSPDVEECAPNTGQCHLCLPPSEPWDQTLGVVNFPRKASRKPPREESSATCVLEQPGALGAQILLVQRPNSGLLAGLWEFPSVTWEPSEQLQRKALLQELQRWAGPLPATHLRHLGEVVHTFSHIKLTYQVYGLALEGQTPVTTVPPGARWLTQEEFHTAAVSTAMKKVFRVYQGQQPGTCMGSKRSQVSSPCSRKKPRMGQQVLDNFFRSHISTDAHSLNSAAQ

Variants of: B1
Assay: 8OG:A repair function score (normalized; synonymous = 0, nonsense = -1) (normalized log-likelihood score); higher = more repair activity (WT-like)
Conditions: with 8OG:A DNA repair reporter (GFP) in HEK-293 MUTYH KO cells
How it was run: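 Lentiviral MUTYH cDNA NNN codon-scan libraries in HEK-293 MUTYH knockout cells (10 pg/ml doxycycline) were co-transfected with an 8OG:A GFP repair reporter plus mCherry. At 72 h, viable mCherry+ cells were sorted into GFP+ (repair) and GFP− bins, three replicates per tile, then tile amplicons were sequenced. Per-tile Rosace fitness scores became a normalized repair function score anchored on synonymous and nonsense distributions. Synonymous medians were set to 0 and nonsense to -1; variants under 300 counts per million at the start were removed.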

| Variant | 8OG:A repair function score |
| --- | --- |
| E106F | -0.995 |
| G123H | -0.0466 |
| G123E | -0.000943 |
| K3H | 0.0273 |
| A357H | -0.147 |
| A357R | -0.0515 |
| L241N | -0.946 |
| R98T | -0.164 |
| V379P | -0.937 |
| D94P | -0.157 |
| Q450I | -0.0986 |
| E64N | -0.0585 |
| E451F | -0.282 |
| E451D | -0.178 |
| E451C | -0.198 |
| H57P | -0.793 |
| H57F | -0.751 |
| T122F | -0.0723 |
| M478S | -0.00625 |
| M478D | -0.0222 |
| M478T | -0.0383 |
| D512F | -0.0699 |
| A513K | 0.0278 |
| L180I | -0.119 |

| Variant | 8OG:A repair function score |
| --- | --- |
| E92N | -0.0998 |
| K127R | 0.014 |
| A63L | -0.00968 |
| F505M | -0.0487 |
| F505D | 0.0229 |
| F505P | 0.0167 |
| G161A | -0.00122 |
| E141V | -0.27 |
| A177T | -0.226 |
| A177R | -0.127 |
| Q240F | -0.939 |
| Q240P | -1 |
| R189M | -0.341 |
| Y76H | -0.27 |
| S292C | -0.0199 |
| S292F | -0.0271 |
| V142E | -0.728 |
| G188L | -0.95 |
| G297S | -0.00596 |
| K333F | -0.221 |
| K333V | -0.0946 |
| G412S | -0.26 |
| Q473G | 0.0222 |
| P267K | -1.06 |

| Variant | 8OG:A repair function score |
| --- | --- |
| L139W | -0.0565 |
| W399C | 0.313 |
| R281W | -0.105 |
| A405D | -0.0995 |
| A405Q | -0.0438 |
| A405N | -0.161 |
| A405E | 0.199 |
| C272N | -1.21 |
| E285R | 0.00385 |
| E285H | -0.0454 |
| F59K | -1.43 |
| E46G | -0.0545 |
| A519W | 0.00269 |
| L369D | -0.723 |
| L369F | 0.0478 |
| P244K | 0.065 |
| W447S | -1.01 |
| S490H | -0.00447 |
| P44I | -0.165 |
| R213F | -1.01 |
| R213P | -1.03 |
| Q499P | 0.0119 |
| T112H | -0.634 |
| D249Y | -0.608 |

| Variant | 8OG:A repair function score |
| --- | --- |
| S486Q | -0.0168 |
| S486E | 0.0262 |
| Q78S | 0.00682 |
| Q78I | -0.00974 |
| Q78M | -0.517 |
| Q78K | -0.0833 |
| T511M | -0.0046 |
| T511K | -0.00393 |
| S153A | 0.0766 |
| L408Q | -0.293 |
| C314E | -0.317 |
| P225K | -0.284 |
| Y120C | -0.227 |
| A461D | -0.732 |
| A461C | -0.0899 |
| A461R | -0.632 |
| H454G | -0.0392 |
| Q265C | -0.0499 |
| K492A | 0.0165 |
| P383W | -0.185 |
| P383E | 0.0397 |
| G372V | -0.75 |
| Y469M | -0.259 |
| W128G | -0.819 |

| Variant | 8OG:A repair function score |
| --- | --- |
| S480D | 0.0166 |
| P306Y | -0.0217 |
| I221R | -0.972 |
| G70D | -0.369 |
| G70F | -0.115 |
| G70I | -0.00774 |
| T460P | -0.347 |
| T460D | -0.312 |
| E303D | -0.0577 |
| R467T | -0.0575 |
| K464L | -0.298 |
| G205T | -0.773 |
| L237W | -0.397 |
| A6M | -0.168 |
| G444A | -0.284 |
| G444L | -0.255 |
| L315V | -0.0921 |
| L315M | 0.0419 |
| P185W | -0.553 |
| C347Q | -1.57 |
| W381C | 0.15 |
| V242P | -0.961 |
| T346E | -1.03 |
| N119T | -0.0798 |

| Variant | 8OG:A repair function score |
| --- | --- |
| L325H | -0.0759 |
| E256P | -1.07 |
| G475S | -0.016 |
| N503I | -0.0307 |
| L234Y | -0.976 |
| T455D | -0.394 |
| T455K | -0.247 |
| H508C | -0.0231 |
| W75M | -1.05 |
| R246C | -0.646 |
| Q394H | 0.21 |
| Q394D | 0.0938 |
| Q386C | 0.0105 |
| M125V | -0.308 |
| M125G | -0.932 |
| A334T | -0.0373 |
| A334K | 0.00736 |
| G171D | -0.296 |
| H514Q | 0.00808 |
| T436C | -0.201 |
| L257I | -0.176 |
| V441K | -0.215 |
| P174Y | -0.958 |
| C216Y | -0.886 |

| Variant | 8OG:A repair function score |
| --- | --- |
| I359S | -0.465 |
| G193P | -0.524 |
| V468E | -0.259 |
| M108C | -0.99 |
| R97H | -0.211 |
| V438R | 0.11 |
| V438M | -0.252 |
| V362I | -0.125 |
| L134D | -1.82 |
| T324E | -0.099 |
| T324G | -0.0488 |
| G248W | -0.937 |
| Q310L | -0.0215 |
| T308Y | -0.0509 |
| T308C | -0.00889 |
| V47W | 0.0191 |
| V47F | 0.0442 |
| S105E | -0.676 |
| S378M | -0.037 |
| G201Y | -0.227 |
| G201W | -0.353 |
| P402K | -0.00401 |
| T260E | -0.154 |
